# Results published in the DeepSol protein solubility set.
# Experiment: soluble on expression in E. coli; label from the status in PepcDB or PDB records
row,Sequence,soluble on expression in E. coli
1,MVILLPMVTFTMAYLIVDVPKPGDIRTNQVSTILASDGSEIAKIVPPEGNRVDVNLSQVPMHVRQAVIAAEDRNFYSNPGFSFTGFARAVKNNLFGGDLQGGSTITQQYVKNALVGSAQHGWSGLMRKAKELVIATKMSGEWSKDDVLQAYLNIIYFGRGAYGISAASKAYFDKPVEQLTVAEGALLAALIRRPSTLDPAVDPEGAHARWNWVLDGMVETKALSPNDRAAQVFPETVPPDLARAENQTKGPNGLIERQVTRELLELFNIDEQTLNTQGLVVTTTIDPQAQRAAEKAVAKYLDGQDPDMRAAVVSIDPHNGAVRAYYGGDNANGFDFAQAGLQTGSSFKVFALVAALEQGIGLGYQVDSSPLTVDGIKITNVEGEGCGTCNIAEALKMSLNTSYYRLMLKLNGGPQAVADAAHQAGIASSFPGVAHTLSEDGKGGPPNNGIVLGQYQTRVIDMASAYATLAASGIYHPPHFVQKVVSANGQVLFDASTADNTGDQRIPKAVADNVTAAMEPIAGYSRGHNLAGGRDSAAKTGTTQFGDTTANKDAWMVGYTPSLSTAVWVGTVKGDEPLVTASGAAIYGSGLPSDIWKATMDGALKGTSNETFPKPTEVGGYAGVPPPPPPPEVPPSETVIQPTVEIAPGITIPIGPPTTITLAPPPPAPPAATPTPPP,soluble
2,MVKCLSAHNKAPHVSVITPSYNSRRFIGETILSVQNQSYENWEMIIVDDCSTDQSAAKIKEIIEGDSRIRLLSLKENVGAAKARNLAIREARGRYIAFLDSDDIWLPHKLKTQLLFMEEMNIAFSYASYSLIDENGNELNREVSVPKSVDYHYLVGNTIIGCLTVMIDREKIPYVEMPSVQPEDTALWLNLLHEGHEAKGIQQVLAKYRIVANSVSSNKVRAAFRYWKLLRDQKSLNAVQSFYYFSKYAYHAYKKNKINVVGKTQLLEHHHHHH,not soluble
3,MVKLILAEVFNSWQGEGGSVPGSAFGRRQIFVRFAGCDLRCIWCDSSQFIDASKVKKWRIEVEPFSGRFEYRENPASIDEVVDAILKLDTGDLHSISYTGGEPTLQIEGLYILMERMKGLGFDNFLETHGGHPELIKRVSYLTDYASVDIKDESARASRDWRGLVLKEVESIKILKEAGAKVYAKLVVTRETKLENVKWYANLLKGVAPLAIQPKEPMDISMEYLMKLYREAARIMGKKNVGLSFQVHKYLKVL,soluble
4,MVKNVAVIVDSSFYIPKEEQQKYNIYVIPTPIIFNGRIKYDSDWSSAAKFFKDMNSAKKMPSTSMASPADVLKAFEQVRADGYRQAILMTMASGISGFYNMAVNLANDYQELDVQVWDSKFTLMISGVQALLAAELSAQGITREEIMKKVALLRDSTRVFIVVDDISHLKRTGRLAGGAALVAGLLNIKPILVFNKASKIVAIGKERQMKRAWNWLLKQYAIDAPDFDRPIRVLFADANNRALTENWQADFHEKYPDVITDFIPIGPLIGVHTGEKAVGFVYMDDWKDIARHH,not soluble
5,MVKRREAFEIEGKRVIAGSQMGIKLPAAKLYTDTQLDIHVEVFHGVKPGPTLLVCAAIHGDELNGIEICRRLLGRVNPKNLAGTLIVVPIVNVFGFIQQSRYLPDRRDLNRCFPGSSKGALASRLANLFATQLLVHATHVIDLHTGAIHRDNLPQIRCDTNDETMLAMANAFGAPLIMHSKARSVSMRGYANQQGIPCILYEAGEALRFSELAIKSGLKGVLNVMRSLGMLKGRVSNKIASVSAIRSYWIRSESDGLVNMKLKLGQRVNKGYIIAHIVSPHGGDSVAIRAPTDGIIIGISNIPVTNEGEGMFHIAQFEGDEIEIANEQLDEFLMEYA,not soluble
6,MVLDIDMFRTEKGGNPEIIRKSQQDRFKDPKLVDEVIELDEKWRKERFVADQLNRQKNAISKAIGEKMKKKEPQGTDDSVADDIVARLAELKIDELSQLTVVQLKKLRVLVDEKSVQTAAAVIANENARHEKLIQIGNLIHSSVVVSKDEANNKIERTFGDLSTKKKYSHVDLVVMVDGFDGERGTVVAGGRGYFLKGPLVFLEQAIIQLALQRLNVKGYVPLYTPFFMRKEVMQEVAQLSQFDDELYKVSSKGSEIAGDTSVDEKYLIATSEQPIAAYHRNEWIKETELPIKYAGVSTCFRQEVGSHGRDTRGIFRVHQFEKIEQFVLCSPNDNESWTLFDEMIGNAESYYQELQIPYQVVNIVSGELNNAAAKKFDLEAWFPGSGAYRELVSCSNCLDYQSRRLKVRYGQTKKLSGEVPFVHMLNATMCATTRVICAILENNQTEEGINVPTAIQQWMPENYRTFIPFVKPAPIDEDAKKATGKK,not soluble
7,MVLEATVLVIDNSEYSRNGDFPRTRFEAQIDSVEFIFQAKRNSNPENTVGLISGAGANPRVLSTFTAEFGKILAGLHDTQIEGKLHMATALQIAQLTLKHRQNKVQHQRIVAFVCSPISDSRDELIRLAKTLKKNNVAVDIINFGEIEQNTELLDEFIAAVNNPQEETSHLLTVTPGPRLLYENIASSPIILEEGSSGMGAFGGSGGDSDANGTFMDFGVDPSMDPELAMALRLSMEEEQQRQERLRQQQQQQDQPEQSEQPEQHQDK,soluble
8,MVLKGDAKRIVAMSSTHIAMLDAIGEVRCITGVSGIDYISNPDIQARRDSIGDVGYEGNINYELLLSLDPDLVLLYGVNGASAMESKLEELDIPFMYVGDYLEESPLGKAEWMVVLSEVTGKREKGEKAFAAIPVRYNALKKKVADSTLGLEHHHHHH,not soluble
9,MVLLDNADRVVLLTEKERPRGRKIDISLTFLLPHDNWFSVEDGVSDHYFSRRGFLRASLLGVLCLRGIGSALATEFLEESYPVGRLSLRNIHTGEHLSVTYRTPDGEVDLDALNSINWLLRCHFTNQHTEMDLAVIEYLNMVDKVLGGGREFRIISGYRSPEYNRILSEHNGAVAKQSLHMEGKAIDIAVPGVSLAVLRDLAAGFRCGGVGYYPHSGFVHLDSGRFRTW,not soluble
10,MVLLHHQPLGSHHATTSGGSLLERADLSHPIPENARKLAQLVEYDESRVELGTHSVFVREARPPGAHYSKATVIFLHGQSFSSSTWTENNLLRTFAALGYRAIAIDLPGSGQTRGAAIPQAEKPNFLMDFIETLGLKQVMIVCASMAAQYVLPLMTSTRHLSCVVLVAPSNTHEVVSPSSYTVPTLVVWGERDTSLGPTAAANLKNLPQVKLQKIPDAGHACYLHNPKCFENLCVNFFDLIRSYHH,not soluble
11,MVLPKDVKWDLIRQFQRHEQDTGSPEVQIAILTERINRLTEHMKKHKKDIHSRRGLIAMVNKRRKLLEYLRETDYAKYLEVVQKLNLKVK,soluble
12,MVLQHQFDGLLEVMPENPRKKLRFTSRHIAAVNRYLDDKYFDPKEEKWSNLHPKYRIVLENLIRQTGPRLSPQVTLFLPNTFNGAFAPRQPFGLPSYFYHTCKKAESITQATHAMNQEYTVKMKNLNDQIDAYIYDTHLDILKVTEKRGDYLKNIPHDFGEHPDNPRNGQDNPKIELEHREILWNGLKVVLENGRFYETSTTETNVVEIFLNDELLNDKLYILKAEFFAAFYASEEATQIEVMVLFDNYFMAGGTIQYGEKLVCHLQEIPGTYGTTSFSCSSDFKSMVRKCGLPPIPRIGSPWNSDLMESIAELQQAIIRLENRVYDKDYIGKYTHENGGFIEAYCASLKNLSNTLYLLEEGTIELPAHSKNWTPREKLAYLSNFAPEKEMTSCEIGKPCASFKMIIGLAKSLRKNPYNFSFSGELLAEFSFQIRMAMLSMYLVLERNLPDAPHDNSQFVMTTLSHFRRLYIDNVKKIYQIFPHFPVEMRPVVLDVMCQRATPANYQEILEIYSYEPDMVTKMVQKYPYILLFTPHVTRPPIKLIRDFSEYMEKEMMSSEQAQMSRVDVIVLEENEPDGQESGVDYILARSNKRARVDFEKLDLLLESIMPEEAPARDYRKNTSEGHLAEIFGPTNNEEAEEEPSLPSCSYSTPKRVNRAKPALDSPSGNLRTANKDQVDLLDNVMQRSEKRQWKM,not soluble
13,MVMLTKCLSSKDNIMSLTCMPALFLGHGSPMNVLDDNDYTRAWRRLGEALPRPQAIVVVSAHWYTRGTGVTAMERPQTLHDFGGFPQALYDTHYPAPGSPALAQRLVELLAPVPVALDKEAWGFDHGSWGVLIKMYPNADIPMVQLSVDSTKPAAWHFEVGRKLATLRDEGVMLVASGNVVHNLRTVRWHGDNIPYPWAASFNDFVKANLTWQGPVEQHPLVNYLQHEGGALSNPTPEHFLPLLYVLGAWDGKEPITIPVDGIEMGSISMLSVQVGLEHHHHHH,not soluble
14,MVMRGNKMRGDKKIFKKRVERFQELLKENNIDGAVIRTLSSFIYFTGTKWLRPSLLIPAEGEPRVLVVKGEAELFKERSWIEDVVEYQKAEELMLTVVKWIRENEMKRVGLEFGIERDAYLIFYKIFLRLNPTVEVVDILDLTMKLRMIKDEWELDNIRKAGKIALKGMRVAEEEIKPGRTELEIAAEVTRELMLNGSEDPKVYVSVTPRAHAEPFRDLKVPENGVVTVVIGTDWNHYYANMARTFIIGDPGERVKKAIEVKKEAIKLALEETKVGVPISTVEKKIEQFFKERGFGDYHLSGYTHGVGLLIEEPPIATIVVPQRAAKIQENMVLSIIHPPLMLPEGAIKYENTYIVKKDGLERVT,soluble
15,MVPSRNGEGTELRGHMEIEKELALEKKTYGSHIKILILGGPLSGKSTIFKQMQIIHVDGFKTDQELIQYRGLIDNNIRDIYLQLIAGSRVVGIPLDPIEHITYEIDEIYAPMSDAFSVRTISELLEPLTEFWNSKQIQEIYKRRCEFELLDSTKYYLENLTRIADPTYLPNQEDIVHSRKATMSINSIVFEYTGVSLLMIDVGGQRSERKKWLHLFDDAKVVLFVIDLTGYAKRSEESRMELSRFPKFFRDVGSNAYDMKVALKIFNEVAAASALANAVFLLFFNKVDLFKEILSQVNLQPCFSKFDGENTYEETSKYICEKFIRAASSKKSVFPHFTTATNTENVKLVFRACMESVFKANAKATGLS,not soluble
16,MVQLSLSQVHQDQIYRHGERCYPEECCGLLLGKILIGENGHRHWQVVEVQPTENCWGDVEEFQQNNHQGNKLHYFAIDPKVLLSAQKDCRQKGLSIIGIFHSHPHGQPIPSEFDRAIAWPEYIYLIASGLEHHHHHH,not soluble
17,MVRDMKHTVEVMIPEAEIKARIAELGRQITERYKDSGSDMVLVGLLRGSFMFMADLCREVQVSHEVDFMTASSYGSGMSTTRDLKILKDLDEDIRGKDVLIVEDIIDSGNTLSKVREILSLREPKSLAICTLLDKPSRREVNVPVEFIGFSIPDEFVVGYGIDYAQRYRHLPYIGKVILLDE,soluble
18,MVRMYEERTATFHSMNEGVIAIDNRLVITIFNEKAKQIFEVQGDLIGKVIWEVLKDSRLPEIVERNKAVYNEEIRVSGKVIMSSRIPIVMKKKVIGAVAIFQDRTEAAKMAEELTGVRNFVEALRVQNHEHMNKLHTIAGLIQLGKSEKALQLAFQASTEQENVTEFLHRSIQNDAAAGLLLSKIRRGRELGIAVHIDENSSLQQFPEHVDQHDIVVLLGNLIENAFGSFETVQSEDKRIDISIEQTDDILAILIEDNGCGIEPTHMPRLYDKGFTVNKTGGTGYGLYLVKQIIDKGSGTIEVDSHAGQGTSFSIVFPMKGE,not soluble
19,MVRPYGIKVNKRKEREERYDKEEDEVEEQPKFEQKQKARESSKKAKKESTSRAEEDNDEEEVTVEATAAAEDIVGGIPIVLNAPNKEKSGIVFVLEKASLEVAKVGKTYQLLNSDDHANFLKKNNRNPADYRPDITHQALLMILDSPVNKAGRLKAVYVRTEKGVLFEVKPHVRIPRTFKRFAGIMLQLLQKLSITAVNSREKLLRCVKNPIEEHHLPVNSHRIGFSHSSEKLVNMQKHLATVCDDDRDTVFVVGAMAHGKIDCNYIDEFVSVSEYPLSAAYCISRICEALATNWNII,soluble
